# Measurements from article PMC9957003, “Functional Analyses of Rare Germline Missense BRCA1 Variants Located within and outside Protein Domains with Known Functions” (Genes, 2023).
# Substitutions are numbered along the chain they refer to.
# B1: BRCA1 p.Ile925Val (full-length, mCherry-tagged) (natural protein, human, UniProt P38398 1-1863, looked up)
# chain: MDLSALRVEEVQNVINAMQKILECPICLELIKEPVSTKCDHIFCKFCMLKLLNQKKGPSQCPLCKNDITKRSLQESTRFSQLVEELLKIICAFQLDTGLEYANSYNFAKKENNSPEHLKDEVSIIQSMGYRNRAKRLLQSEPENPSLQETSLSVQLSNLGTVRTLRTKQRIQPQKTSVYIELGSDSSEDTVNKATYCSVGDQELLQITPQGTRDEISLDSAKKAACEFSETDVTNTEHHQPSNNDLNTTEKRAAERHPEKYQGSSVSNLHVEPCGTNTHASSLQHENSSLLLTKDRMNVEKAEFCNKSKQPGLARSQHNRWAGSKETCNDRRTPSTEKKVDLNADPLCERKEWNKQKLPCSENPRDTEDVPWITLNSSIQKVNEWFSRSDELLGSDDSHDGESESNAKVADVLDVLNEVDEYSGSSEKIDLLASDPHEALICKSERVHSKSVESNIEDKIFGKTYRKKASLPNLSHVTENLIIGAFVTEPQIIQERPLTNKLKRKRRPTSGLHPEDFIKKADLAVQKTPEMINQGTNQTEQNGQVMNITNSGHENKTKGDSIQNEKNPNPIESLEKESAFKTKAEPISSSISNMELELNIHNSKAPKKNRLRRKSSTRHIHALELVVSRNLSPPNCTELQIDSCSSSEEIKKKKYNQMPVRHSRNLQLMEGKEPATGAKKSNKPNEQTSKRHDSDTFPELKLTNAPGSFTKCSNTSELKEFVNPSLPREEKEEKLETVKVSNNAEDPKDLMLSGERVLQTERSVESSSISLVPGTDYGTQESISLLEVSTLGKAKTEPNKCVSQCAAFENPKGLIHGCSKDNRNDTEGFKYPLGHEVNHSRETSIEMEESELDAQYLQNTFKVSKRQSFAPFSNPGNAEEECATFSAHSGSLKKQSPKVTFECEQKEENQGKNESNIKPVQTVNVTAGFPVVGQKDKPVDNAKCSIKGGSRFCLSSQFRGNETGLITPNKHGLLQNPYRIPPLFPIKSFVKTKCKKNLLEENFEEHSMSPEREMGNENIPSTVSTISRNNIRENVFKEASSSNINEVGSSTNEVGSSINEIGSSDENIQAELGRNRGPKLNAMLRLGVLQPEVYKQSLPGSNCKHPEIKKQEYEEVVQTVNTDFSPYLISDNLEQPMGSSHASQVCSETPDDLLDDGEIKEDTSFAENDIKESSAVFSKSVQKGELSRSPSPFTHTHLAQGYRRGAKKLESSEENLSSEDEELPCFQHLLFGKVNNIPSQSTRHSTVATECLSKNTEENLLSLKNSLNDCSNQVILAKASQEHHLSEETKCSASLFSSQCSELEDLTANTNTQDPFLIGSSKQMRHQSESQGVGLSDKELVSDDEERGTGLEENNQEEQSMDSNLGEAASGCESETSVSEDCSGLSSQSDILTTQQRDTMQHNLIKLQQEMAELEAVLEQHGSQPSNSYPSIISDSSALEDLRNPEQSTSEKAVLTSQKSSEYPISQNPEGLSADKFEVSADSSTSKNKEPGVERSSPSKCPSLDDRWYMHSCSGSLQNRNYPSQEELIKVVDVEEQQLEESGPHDLTETSYLPRQDLEGTPYLESGISLFSDDPESDPSEDRAPESARVGNIPSSTSALKVPQLKVAESAQSPAAAHTTDTAGYNAMEESVSREKPELTASTERVNKRMSMVVSGLTPEEFMLVYKFARKHHITLTNLITEETTHVVMKTDAEFVCERTLKYFLGIAGGKWVVSYFWVTQSIKERKMLNEHDFEVRGDVVNGRNHQGPKRARESQDRKIFRGLEICCYGPFTNMPTDQLEWMVQLCGASVVKELSSFTLGTGVHPIVVVQPDAWTEDNGFHAIGQMCEAPVVTREWVLDSVALYQCQELDTYLIPQIPHSHY
# notes: BRCA1, human, full-length, rare germline missense variant introduced in the WT plasmid; Made by site-directed mutagenesis of the plasmid of m1; also called c.2773A > G; source: HEK293FT, transiently co-transfected, in lysate
# B2: BRCA1 p.Leu523Val (full-length, mCherry-tagged) (natural protein, human, UniProt P38398 1-1863, looked up)
# chain: B1 chain with L523V, V925I
# notes: BRCA1, human, full-length, rare germline missense variant introduced in the WT plasmid; Made by site-directed mutagenesis of the plasmid of m1; also called c.1567T > G; source: HEK293FT, transiently co-transfected, in lysate
# B3: BRCA1 p.Leu1439Phe (full-length, mCherry-tagged) (natural protein, human, UniProt P38398 1-1863, looked up)
# chain: B1 chain with V925I, L1439F
# notes: BRCA1, human, full-length, rare germline missense variant introduced in the WT plasmid; Made by site-directed mutagenesis of the plasmid of m1; also called c.4315C > T; source: HEK293FT, transiently co-transfected, in lysate
# B4: BRCA1 p.Thr1256Ile (full-length, mCherry-tagged) (natural protein, human, UniProt P38398 1-1863, looked up)
# chain: B1 chain with V925I, T1256I
# notes: BRCA1, human, full-length, rare germline missense variant introduced in the WT plasmid; Made by site-directed mutagenesis of the plasmid of m1; also called c.3767C > T; source: HEK293FT, transiently co-transfected, in lysate
# B5: BRCA1 p.Lys503Arg (full-length, mCherry-tagged) (natural protein, human, UniProt P38398 1-1863, looked up)
# chain: B1 chain with K503R, V925I
# notes: BRCA1, human, full-length, rare germline missense variant introduced in the WT plasmid; Made by site-directed mutagenesis of the plasmid of m1; also called c.1508A > G; source: HEK293FT, transiently co-transfected, in lysate
# B6: BRCA1 p.Met1411Thr (full-length, mCherry-tagged; pathogenic control variant, coiled-coil domain) (natural protein, human, UniProt P38398 1-1863, looked up)
# chain: B1 chain with V925I, M1411T
# notes: BRCA1, human, full-length, pathogenic control missense variant in the coiled-coil domain, introduced in the WT plasmid; Made by site-directed mutagenesis of the plasmid of m1; also called c.4232T > C; source: HEK293FT, transiently co-transfected, in lysate
# B7: BRCA1 p.Val1378Ile (full-length, mCherry-tagged; benign control variant, coiled-coil domain) (natural protein, human, UniProt P38398 1-1863, looked up)
# chain: B1 chain with V925I, V1378I
# notes: BRCA1, human, full-length, benign control missense variant in the coiled-coil domain, introduced in the WT plasmid; Made by site-directed mutagenesis of the plasmid of m1; also called c.4132G > A; source: HEK293FT, transiently co-transfected, in lysate
# Target: T1, BARD1-V5 WT (BRCA1-Associated RING Domain protein 1) (UniProt Q99728 1-777)
# T1 construct: BARD1 (BRCA1-Associated RING Domain protein 1), wild type; also called pcDNA6.2-BARD1-V5; source: HEK293FT, transiently co-transfected, in lysate
# T1 sequence (looked up): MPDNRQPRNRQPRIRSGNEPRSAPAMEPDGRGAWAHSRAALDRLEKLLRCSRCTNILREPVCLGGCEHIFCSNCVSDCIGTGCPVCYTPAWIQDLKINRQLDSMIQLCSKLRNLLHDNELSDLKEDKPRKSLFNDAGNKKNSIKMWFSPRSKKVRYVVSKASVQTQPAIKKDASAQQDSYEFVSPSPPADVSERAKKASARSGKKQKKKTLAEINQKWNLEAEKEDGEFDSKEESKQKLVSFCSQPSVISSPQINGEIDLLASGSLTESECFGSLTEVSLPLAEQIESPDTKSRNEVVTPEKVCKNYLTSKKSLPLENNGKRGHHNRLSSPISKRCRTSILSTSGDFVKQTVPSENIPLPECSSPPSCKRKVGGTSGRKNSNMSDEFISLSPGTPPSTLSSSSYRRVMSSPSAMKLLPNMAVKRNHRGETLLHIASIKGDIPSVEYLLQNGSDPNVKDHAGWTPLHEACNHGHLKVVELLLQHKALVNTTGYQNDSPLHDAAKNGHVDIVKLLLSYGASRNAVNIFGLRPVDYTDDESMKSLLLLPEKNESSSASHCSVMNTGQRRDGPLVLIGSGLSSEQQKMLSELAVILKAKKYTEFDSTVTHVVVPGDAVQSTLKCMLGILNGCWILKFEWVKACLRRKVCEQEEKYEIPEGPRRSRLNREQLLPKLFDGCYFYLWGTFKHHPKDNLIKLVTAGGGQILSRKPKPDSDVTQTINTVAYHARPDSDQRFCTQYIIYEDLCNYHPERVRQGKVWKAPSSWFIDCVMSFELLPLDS
# Test: co-IP; HEK293FT co-transfected with BRCA1 WT or variant and BARD1-V5; 2 mg lysate protein incubated 90 min at 4 °C with V5 antibody coupled to Dynabeads Protein G; non-denaturing elution; BRCA1 in the IP detected by anti-BRCA1 blot, normalised to the anti-V5 signal, % of WT
# Conditions: partners not purified
row,Binder,Co-IP BARD1 (% of WT)
1,B1,97 % of WT
2,B2,71 % of WT
3,B3,60 % of WT
4,B4,55 % of WT

# Target: T2, Flag-PALB2 WT (Partner and Localiser of BRCA2) (UniProt Q86YC2 1-1186)
# T2 construct: PALB2 (Partner and Localiser of BRCA2), wild type; printed both as Flag-PALB2 and as PALB2-Flag; also called PALB2-Flag; pDEST-FRT/T0-Flag-PALB2; source: HEK293FT, transiently co-transfected, in lysate
# T2 sequence (looked up): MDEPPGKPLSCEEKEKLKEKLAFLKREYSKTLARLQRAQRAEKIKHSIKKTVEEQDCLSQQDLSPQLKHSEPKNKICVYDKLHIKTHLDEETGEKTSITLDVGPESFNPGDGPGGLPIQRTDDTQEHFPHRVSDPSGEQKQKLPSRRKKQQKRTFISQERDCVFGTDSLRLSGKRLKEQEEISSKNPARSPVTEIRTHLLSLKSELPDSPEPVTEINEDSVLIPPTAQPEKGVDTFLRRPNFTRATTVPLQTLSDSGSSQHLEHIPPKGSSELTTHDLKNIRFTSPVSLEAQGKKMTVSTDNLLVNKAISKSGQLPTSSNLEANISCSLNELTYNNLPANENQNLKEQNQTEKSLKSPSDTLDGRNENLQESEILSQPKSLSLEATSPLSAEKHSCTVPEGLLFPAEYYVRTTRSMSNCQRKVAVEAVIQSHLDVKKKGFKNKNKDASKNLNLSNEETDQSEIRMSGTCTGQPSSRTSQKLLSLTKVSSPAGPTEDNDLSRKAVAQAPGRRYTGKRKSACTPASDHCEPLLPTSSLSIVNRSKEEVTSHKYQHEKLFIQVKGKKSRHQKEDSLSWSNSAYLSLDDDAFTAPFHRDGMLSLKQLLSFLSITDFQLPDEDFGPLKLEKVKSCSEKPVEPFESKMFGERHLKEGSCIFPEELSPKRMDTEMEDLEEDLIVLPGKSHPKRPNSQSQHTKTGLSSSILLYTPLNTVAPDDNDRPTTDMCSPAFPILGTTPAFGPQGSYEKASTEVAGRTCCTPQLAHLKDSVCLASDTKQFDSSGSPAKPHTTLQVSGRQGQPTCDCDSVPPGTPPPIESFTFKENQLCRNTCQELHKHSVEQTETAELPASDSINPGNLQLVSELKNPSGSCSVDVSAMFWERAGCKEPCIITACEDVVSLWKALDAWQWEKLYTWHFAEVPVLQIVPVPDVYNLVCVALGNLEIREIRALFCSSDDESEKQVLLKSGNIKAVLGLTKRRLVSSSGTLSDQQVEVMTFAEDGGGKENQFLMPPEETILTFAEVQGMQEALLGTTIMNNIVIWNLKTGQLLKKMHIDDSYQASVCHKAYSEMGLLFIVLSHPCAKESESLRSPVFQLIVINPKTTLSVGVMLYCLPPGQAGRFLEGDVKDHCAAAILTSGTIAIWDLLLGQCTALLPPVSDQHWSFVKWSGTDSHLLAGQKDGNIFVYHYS
# Test: co-IP; HEK293FT co-transfected with BRCA1 WT or variant and Flag-PALB2; 2 mg lysate protein incubated 90 min at 4 °C with Flag antibody coupled to Dynabeads Protein G; non-denaturing elution; BRCA1 in the IP detected by anti-BRCA1 blot, normalised to the anti-Flag signal, % of WT
# Conditions: partners not purified
row,Binder,Co-IP PALB2 (% of WT)
1,B1,88 % of WT
2,B2,73 % of WT
3,B3,86 % of WT
4,B5,18 % of WT
5,B6,11 % of WT
6,B4,79 % of WT
7,B7,72 % of WT
